Kd, koff and kon data for one molecule are collected here from article PMC10855199.

The experiment concerns the target Aβ42 oligomers. As to the kind of experiment: SPR; Biacore T200; AL fibrils (1000 RU) or Aβ42 oligomers (500 RU) amine-coupled on CM5; two-fold serial dilutions of whole antibody injected at 30 μL/min; 25 °C; 10 mM phosphate, 137 mM NaCl, 2.7 mM KCl, 0.05% Tween-20, pH 7.5; global fit to a Langmuir 1:1 model. Background: SPR reads the build-up and loss of mass on a sensor chip optically.

As a reminder, the Kd is the constant that tells how readily two partners part at equilibrium. For orientation: koff means the first-order rate constant of dissociation. The kon is a measure of how fast the partners come together. A low value points to slower complex formation.

B1: wild-type crenezumab (antibody, V domains shown)
VH: EVQLVESGGGLVQPGGSLRLSCAASGFTFSSYGMSWVRQAPGKGLELVASINSNGGSTYYPDSVKGRFTISRDNAKNSLYLQMNSLRAEDTAVYYCASGDYWGQGTTVTVSS
VL: DIVMTQSPLSLPVTPGEPASISCRSSQSLVYSNGDTYLHWYLQKPGQSPQLLIYKVSNRFSGVPDRFSGSGSGTDFTLKISRVEAEDVGVYYCSQSTHVPWTFGQGTKVEIK
On to B1, for which the dissociation constant (Kd) was determined as 1.53 nM, the koff was found to be 0.00116 s⁻¹ and the association rate constant (kon) amounted to 761000 M⁻¹ s⁻¹.
